Positions count from the first letter of the chain named.
B1: NBX16043 (VHH)
VHH: QVQLQESGGGLVQAGGSLRLSCAASGIAFSMFDMVWYRQAPGKQRELVASVSDGGSTAYADSVKGRFTISRDNAKKMVYLQMNSLKPEDTAVYYCKAARSWAYGSGYWGQGIQVTVSS
B2: NBX16036 (VHH)
VHH: QVQLQESGGGLVQAGGSLRLSCVALGNIGWINDMGWYRQAPGKERELVARISSAEATNYADAVKGRFTISRDDAKNTVYLQMNSLKPEDTAVYSCHTRRWYDDGYDYDTWGQGTQVTVSS
B3: NBX16038 (VHH)
VHH: QVQLQQSGGGLVQSGGSLRLSCTATRSTISGYGGRWYRQAPGKQREFVALLSSGGMTRYADSVMGRFTISRDDIKNTLYLQMNTLKPEDTAVYYCNTFDGAWGQGTQVTVSS
B4: NBX16035 (VHH)
VHH: QVQLQESGGGLVQAGGSLRLSCAASGSIFSINVIGWYRQVPGKERELVANSGSTTKYADSVKGRFTISRDNAKNTVDLQMNSLKPEDTAVYYCNAVVTSRTSLGLRSYVYWGQGTQVTVSS
B5: NBX16037 (VHH)
VHH: B4 VHH with E6Q, N50K, G52D, S53R, L103Q, V109A
B6: NBX16041 (VHH)
VHH: B4 VHH with V40A, V109A
B7: NBX16034 (VHH)
VHH: QVQLQESGGGVVQAGGSLRLSCVASGSDTSVYAMRWWRQVPGKERLLLASITSGGTVRYAESVKGRFTISRDDAKNTLYLQMNSLKTEDTAVYLCNAERVLARQNYWGQGTQVTVSS
B8: NBX16042 (VHH)
VHH: QVQLQESGGGLVQAGGSLRLSCVASGITFNFNYYVMGWYRQAPGKQRELVARISDGGNTNYADSVKGRFTISRDNTKNTGYLQMNSLKPEDTAIYYCNLRRSWAPADNGHWGQGTQVTVSS
B9: NBX16033 (VHH)
VHH: QVQLQESGGGTVQAGGSLRLSCAVSGSTFSSYSMNWYRQGPGNQREWVGGIRSNDSTYYADSVKGRFTISRDNAKNAWNLQMNSLKSEDTAVYYCNFWDGSFNQYWGQGTQVTVSA
B10: NBX16040 (VHH)
VHH: QVQLQESGGGMVQAGGSLRLSCAASGTTITINTMRWYRQPPGKERELVASIVPSGKTYYADSVKGRFTISRDNHKNTMYLQMNSLKPEDTAVYYCNSDGRFRGIGTYWGQGTQVTVSS
B11: NBX16039 (VHH)
VHH: QVQLQQSGGGLVQAGGSLRLSCTTSGIIFSFSLLNVGWYRQAPGKERELVARMSTAGNTYYSTSVKDRFTISRDNGKNTVDLQMNSLNADDTAVYYCNLRRSWAPSDSGFWGQGTQVFVSS
B12: NBX17020 (VHH)
VHH: QVQLQQSGGGLVQAGGSLRLSCAGSGRPFGSYVMGWYRQAPGEQREMVARMTSAGSGGVADYGESVKGRFAISRDYAKNMVFLQMNSLKPEDTAVYYCWSALGYWGQGTQVTVSS
B13: NBX17019 (VHH)
VHH: QVQLQESGGGLVQAGGSLRLSCTGPGSTFSSYAVGWYRQAPGGNREWVASISSSGEITRYADSVTGRFTISRDNAKNTVDLQMNSLRPEDTAVYYCAIGTMARGKGTLVTVSS
B14: NBX0708 (VHH)
VHH: QVQLQESGGGLVQAGDSLSLSCVDSKRTADRYVMHWFRQVPGKDREFVAAISGNGLVRNYADSVKGRFTISRDNAKNMVYLQMKSLKPEDTAVYYCAADFVLDSRWRYVPYWGQGTQVTVSS
B15: NBX0750 (VHH)
VHH: QVQLQESGGGLVQPGDSLRLSCAPSGRTFSGYVTGWFRQAPGMEREFVAAITWSGDSTYYADSVKGRFQISRDSAKNTVYLQMNSLKPEDAGVYYCAVKSQTYSTDYVQPRRYAYWGQGTQVTVSS
B16: NBX0740 (VHH)
VHH: QVQLQESGGGLVQAGGSLRLSCAASGRTFVNYNMGWFRQAPGKEREFVATINWSGGSTYYAGSVKGRFTISRDSAKNTVYLQMNKLKPEDTAVYYCAAEVGYGYQGPPLTTPSMYDYWGQGTQVTVST
B17: NBX0713 (VHH)
VHH: QVQLQESGGGLVQPGGSLRLSCAASGRTFRRNAMGWFRQAPGKAREFVATISWSGNRAYSDSVKGRFTISRDNGKNLVSLQMNSLKPEDTAVYYCAAARERITSTYYTPHVLTDYDAWGQGAQVTVSS
B18: NBX0712 (VHH)
VHH: B17 VHH with P14T, R30T, T50V, R101A
B19: NBX0732 (VHH)
VHH: B17 VHH with P14T, S52T, G74E, D114E
B20: NBX0715 (VHH)
VHH: B17 VHH with E6Q, P14A, R30S, G74E, Q81H
B21: NBX0710 (VHH)
VHH: QVQLQESGGGLVQAGGSLRLSCAASGSIFSINAMGWYRQAPGKQRELVAGITSGGSTNYADSVKGRFTISRDNAKNTVYLQMNSLKPEDTAVYYCAADYVGLGDDAFYVPYWGQGTQVTVSA
B22: NBX0718 (VHH)
VHH: QVQLQESGGGLVQAGGSLRLSCAANGRTFSSYAMAWFRQAPGKEREFVAAVGWSGGRTYYTDSVKGRFTISRDNAKDTVYLQMNSLKPEDTAVYYCAATRGWAQATLLYDYDYWGQGTQVTVSS
B23: NBX0711 (VHH)
VHH: QVQLQQSGGGLVQPGGSLRLSCAASRSIRSADAMAWYRQAPGKQRVWVATITSGGSTYYTDSVKGRFTISRDNAKSTVYLQMSSLKPEDTAVYYCNAVGDRTSYWGQGTQVTVAS
B24: NBX0733 (VHH)
VHH: QVQLQQSGGGLVQPGGSLRLSCAASGSIFSVDAMAWYRQAPGKQREWVATFTKGGSTYYAGSVKGRFTISRDNAKNTVYLQMSSLKPEDTAVYYCNAVGDRTGAWGQGTQVTVAS
B25: NBX0751 (VHH)
VHH: QVQLQESGGGLVQPGGSLRLSCAVSGTIFSITPMGWYRQAPGKQRELVASISGGGSTNYTDPVKGRFTISRDKARNTVYLQMNNLKPEDTAVYYCNAASLAIVRGINNYWGQGTQVTVSS
B26: NBX0717 (VHH)
VHH: QVQLQESGGGLVQAGGSLRLSCAASTNIATFTTMGWYRQAPGKERELVATTTPWGATTSYADSVKGRFTISNDNAKNTVNLQMNSLKPEDTAVYYCNAQQDIPTTQTYWGQGTQVTVSS
B27: NBX0707 (VHH)
VHH: QVQLQESGGGLVQAGGSLRLSCAASGSIFSRDTMAWYRQVPGEQRELVAFITNFGGTNHADSVKGRFTISRDNAKNTVYLQMNSLKPEDTAVYYCAAGLVSLRTHTWEYWGQGTQVTVSS
B28: NBX0714 (VHH)
VHH: B27 VHH with F50Y, D61G, G98E
B29: NBX0731 (VHH)
VHH: B27 VHH with A14P, L20V, S27F, I28T, F50Y
B30: NBX0709 (VHH)
VHH: B27 VHH with F50Y, R103H
B31: NBX0734 (VHH)
VHH: B27 VHH with F50Y, D89E
B32: NBX0752 (VHH)
VHH: B27 VHH with T33N, F50L, R103L
B33: NBX0716 (VHH)
VHH: QVQLQESGGGLVQAGGSLSLSCTASGRTFSTFPVAWFRQAPGKEREFVARINWFTTDTYYADSVKGRFTISRDSAKNTVYLQMNALKPEDTAIYYCAAARSNTGTSRFDYWGQGTQVTVSS

What follows are binders tested against T1, GST fusion of the EtAMA1-binding peptide of EtRON2 (Eimeria tenella, UniProt P08515 1-218 = GST) (assay: phage ELISA, wells coated with GST-RON2 peptide).
T1 construct: Expressed in E. coli, purified as the other antigens but without TEV cleavage, so a His tag and TEV site probably remain; also called GST-RON2 peptide
T1 sequence (P08515 1-218, tags or fused parts left off): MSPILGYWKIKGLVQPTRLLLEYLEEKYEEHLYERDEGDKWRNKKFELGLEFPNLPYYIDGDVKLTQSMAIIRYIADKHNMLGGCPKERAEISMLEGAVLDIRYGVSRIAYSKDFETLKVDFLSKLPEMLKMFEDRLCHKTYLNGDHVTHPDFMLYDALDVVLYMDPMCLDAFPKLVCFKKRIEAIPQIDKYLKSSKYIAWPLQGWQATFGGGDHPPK

| Binder | binding relative to GST-coated wells | binding relative to PBS-coated wells |
| --- | --- | --- |
| B1 | ≥ 3 times | ≥ 4 times |
| B2 | ≥ 3 times | ≥ 4 times |
| B3 | ≥ 3 times | ≥ 4 times |
| B4 | ≥ 3 times | ≥ 4 times |
| B5 | ≥ 3 times | ≥ 4 times |
| B6 | ≥ 3 times | ≥ 4 times |
| B7 | ≥ 3 times | ≥ 4 times |
| B8 | ≥ 3 times | ≥ 4 times |
| B9 | ≥ 3 times | ≥ 4 times |
| B10 | ≥ 3 times | ≥ 4 times |
| B11 | ≥ 3 times | ≥ 4 times |

What follows are binders tested against T2, GST fusion of the EmAMA1-binding peptide of EmRON2 (Eimeria maxima, UniProt P08515 1-218 = GST) (assay: phage ELISA, wells coated with GST-RON2 peptide).
T2 construct: Expressed in E. coli, purified as the other antigens but without TEV cleavage, so a His tag and TEV site probably remain; also called GST-RON2 peptide
T2 sequence (P08515 1-218, tags or fused parts left off): as above

| Binder | binding relative to GST-coated wells | binding relative to PBS-coated wells |
| --- | --- | --- |
| B12 | ≥ 3 times | ≥ 4 times |
| B13 | ≥ 3 times | ≥ 4 times |

Molecular target: T3, Eimeria maxima MIC2 (Eimeria maxima)
T3 construct: Recombinant antigen coated on ELISA wells; also called EmMIC2
T3 chain: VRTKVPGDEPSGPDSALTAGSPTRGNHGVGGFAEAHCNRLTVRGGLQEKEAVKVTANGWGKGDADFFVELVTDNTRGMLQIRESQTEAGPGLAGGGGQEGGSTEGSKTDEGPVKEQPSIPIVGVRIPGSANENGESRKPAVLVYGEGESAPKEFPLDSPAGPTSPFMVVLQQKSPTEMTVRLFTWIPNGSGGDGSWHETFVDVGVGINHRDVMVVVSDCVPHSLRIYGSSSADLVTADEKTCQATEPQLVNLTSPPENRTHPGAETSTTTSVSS
Assay: phage ELISA, antigen-coated wells;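 further: antigen dissolved in PBS and coated onto wells, with negative-control wells holding PBS alone as the reference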
Excerpt: Black bars show binding to wells coated with the antigen specified in Tables 1 and 2 dissolved in phosphate-buffered saline (PBS). Grey bars are negative controls that show binding to wells coated with PBS only.

| Binder | binding relative to PBS-coated wells |
| --- | --- |
| B14 | ≥ 4 times |
| B15 | ≥ 4 times |
| B16 | ≥ 4 times |
| B17 | ≥ 4 times |
| B18 | ≥ 4 times |
| B19 | ≥ 4 times |
| B20 | ≥ 4 times |
| B21 | ≥ 4 times |
| B22 | ≥ 4 times |
| B23 | ≥ 4 times |
| B24 | ≥ 4 times |
| B25 | ≥ 4 times |
| B26 | ≥ 4 times |
| B27 | 4 times |
| B28 | ≥ 4 times |
| B29 | ≥ 4 times |
| B30 | ≥ 4 times |
| B31 | ≥ 4 times |
| B32 | ≥ 4 times |
| B33 | ≥ 4 times |
